This note sets out measurements from patent US20260167959A1, “APTAZYME-BASED REGULATABLE GENE EXPRESSION SYSTEMS” (REJUVENATE BIO INC, priority 2022, published 2026).

The chains are these.
B1: RA198 (nucleic acid)
DNA: GCGCGTCCTGAGAATACCAGCATCGTCTTGATGCCCTTGGAAGTCTGATTCGCGGAAACGCGTACATCCAGCTGACGAGTCCCAAATAGGACGAAACGCGC
modifications: expressed or natural sequence
B2: RA206 (nucleic acid)
DNA: GCGCGTCCTGGATTCGCCGGAATACCAGCATCGTCTTGATGCCCTTGGAAGTCCGGCGGAAACGCGTACATCCAGCTGACGAGTCCCAAATAGGACGAAACGCGC
modifications: expressed or natural sequence
B3: RA200 (nucleic acid)
DNA: GCGCGTCCTGGATTCGCGGAAACGCGTACATCCGAGAATACCAGCATCGTCTTGATGCCCTTGGAAGTCTCGCAGCTGACGAGTCCCAAATAGGACGAAACGCGC
modifications: expressed or natural sequence
B4: RA199 (nucleic acid)
DNA: GCGCGTCCTGGATTCGCGGAAACAGTGATACCAGCATCGTCTTGATGCCCTTGGCAGCACTGCGTACATCCAGCTGACGAGTCCCAAATAGGACGAAACGCGC
modifications: expressed or natural sequence
B5: RA195 (nucleic acid)
DNA: GCGCGTCGAGAATACCAGCATCGTCTTGATGCCCTTGGAAGTCTCGCCTGGATTCGCGGAAACGCGTACATCCAGCTGACGAGTCCCAAATAGGACGAAACGCGC
modifications: expressed or natural sequence
B6: RA201 (nucleic acid)
DNA: GCGCGTCCTGGATTCGCGGAAACGCGAGAATACCAGCATCGTCTTGATGCCCTTGGAAGTCTCGCGTACATCCAGCTGACGAGTCCCAAATAGGACGAAACGCGC
modifications: expressed or natural sequence
B7: RA020 (nucleic acid)
DNA: GCGCGTCCTGGATTCGCGGAAACGCGTACATCGGAATACCAGCATCGTCTTGATGCCCTTGGAAGTCCGCCAGCTGACGAGTCCCAAATAGGACGAAACGCGC
modifications: expressed or natural sequence
B8: RA203 (nucleic acid)
DNA: GCGCGTCCTGGATTCGCGGAAACGCGTACATCCAGCTGACGAGTCCCAAATAGGAAGAATACCAGCATCGTCTTGATGCCCTTGGAAGTCTCGAAACGCGC
modifications: expressed or natural sequence
B9: RA019 (nucleic acid)
DNA: GCGCGTCCTGGATTCGCGGAAACGCGTACATCCAGCTGACGGGAATACCAGCATCGTCTTGATGCCCTTGGAAGTCCAGTCCCAAATAGGACAAAACGCGC
modifications: expressed or natural sequence
B10: RA192 (nucleic acid)
DNA: GCGCGTCCTGGATTCGCGGAAACGCGTACATCCAGCTGACGAGTCCCAAATGGAATACCAGCATCGTCTTGATGCCCTTGGAAGTCCAGGACGAAACGCGC
modifications: expressed or natural sequence
B11: RA196 (nucleic acid)
DNA: GCGCGTCCTGGATTCGCGGAAACGCGTACATCCAGCTGACGAGTCCCAAATGAGAATACCAGCATCGTCTTGATGCCCTTGGAAGTCTCAGGACGAAACGCGC
modifications: expressed or natural sequence
B12: RA197 (nucleic acid)
DNA: GCGCGTCCTGGATTCGCGGAAACGCGTACATCCAGCTGACGAGTCCCAAATAGGACAAAACGCGC
modifications: expressed or natural sequence
B13: RA209 (nucleic acid)
DNA: GCGCGTCCTGGATTCGCGGAGAGAATACCAGCATCGTCTTGATGCCCTTGGAAGTCTCAACGCGTACATCCAGCTGACGAGTCCCAAATAGGACGAAACGCGC
modifications: expressed or natural sequence
B14: RA208 (nucleic acid)
DNA: GCGCGTCCTGGATTCGCGGAAACGCGTACATCCAGCTGACGAGTCCCAAACCGGAATACCAGCATCGTCTTGATGCCCTTGGAAGTCCGGTAGGACGAAACGCGC
modifications: expressed or natural sequence
B15: RA202 (nucleic acid)
DNA: GCGCGTCCTGGATAGTGATACCAGCATCGTCTTGATGCCCTTGGCAGCACTTCGCGGAAACGCGTACATCCAGCTGACGAGTCCCAAATAGGACGAAACGCGC
modifications: expressed or natural sequence
B16: RA193 (nucleic acid)
DNA: CCGGAATACCAGCATCGTCTTGATGCCCTTGGAAGTCCGGGCGCGTCCTGGATTCGCGGAAACGCGTACATCCAGCTGACGAGTCCCAAATAGGACGAAACGCGC
modifications: expressed or natural sequence
B17: RA204 (nucleic acid)
DNA: GCGCGTCCCGGAATACCAGCATCGTCTTGATGCCCTTGGAAGTCCGTGGATTCGCGGAAACGCGTACATCCAGCTGACGAGTCCCAAATAGGACGAAACGCGC
modifications: expressed or natural sequence
B18: RA205 (nucleic acid)
DNA: GCGCGTCCTGGATTCGCGGAAACGCGTACATCCAGCTGACGAGTCCCAAATAGGACGAAACGCGGAATACCAGCATCGTCTTGATGCCCTTGGAAGTCCGC
modifications: expressed or natural sequence
B19: RA207 (nucleic acid)
DNA: GCGCGTCCTGGATTCGCGGAAACGCGTACATCCAGCTGACGAGTCCCAAGAGAATACCAGCATCGTCTTGATGCCCTTGGAAGTCTCATAGGACGAAACGCGC
modifications: expressed or natural sequence
B20: RA194 (nucleic acid)
DNA: GCGCGTCCTGGATTCGCGGAAACGCGTACATCCAGCTGACGAGAATACCAGCATCGTCTTGATGCCCTTGGAAGTCTCGAGTCCCAAATAGGACGAAACGCGC
modifications: expressed or natural sequence

The data set has as its system Renilla luciferase RNA. Description: Barcoded aptazyme variant library screen: un-cleaved Renilla luciferase RNA by barcode read counts, HEK293-T cells. The format is cell-based. To be noted: un-cleaved Renilla luciferase RNA, HEK293-T cells cultured with 1 mM theophylline (ON) over without theophylline (OFF); barcode read counts, triplicate. An outline of the steps:
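Barcode sequencing of cDNA versus DNA, normalized per aptazyme, gave the un-cleaved Renilla luciferase RNA fraction and fold-change with versus without theophylline (triplicates). Library: T3H48 ribozyme with one of seven theophylline aptamer variants inserted at each position, placed in the Renilla 3′ UTR of a dual-luciferase vector.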
B1: the “Fold change in RNA expression between the ON state and the OFF state” value (from here on “Fold change”) was found to be 1.2 fold.
For the molecule B2, the “Fold change” value is listed as 1.2 fold.
The result for B3 reads 1.2 fold.
The result for B4 reads 1.2 fold.
Take B5: the “Fold change” value was found to be 1.2 fold.
Then B6, with 1.2 fold; and B7, with 2.7 fold; and B8, with 1.2 fold.
Then B9, with 2.7 fold; and B10, with 1.2 fold.
For B11, the “Fold change” value is on record as 1.2 fold.
The result for B12 reads 1.2 fold; that for B13, 1.2 fold; that for B14, 1.2 fold.
In the case of B15, the “Fold change” value was found to be 1.2 fold.
On to B16, for which the “Fold change” value was determined as 1.2 fold.
In the case of B17, the “Fold change” value is 1.2 fold.
As for B18, the “Fold change” value is reported as 1.2 fold.
Regarding B19, the “Fold change” value is recorded as 1.2 fold.
The result for B20 reads 1.2 fold.
